The target of one assay is T1, K8 (1-352).
T1 construct: not shown: N-terminal GST and its linker (modified pGEX-2T)
T1 chain: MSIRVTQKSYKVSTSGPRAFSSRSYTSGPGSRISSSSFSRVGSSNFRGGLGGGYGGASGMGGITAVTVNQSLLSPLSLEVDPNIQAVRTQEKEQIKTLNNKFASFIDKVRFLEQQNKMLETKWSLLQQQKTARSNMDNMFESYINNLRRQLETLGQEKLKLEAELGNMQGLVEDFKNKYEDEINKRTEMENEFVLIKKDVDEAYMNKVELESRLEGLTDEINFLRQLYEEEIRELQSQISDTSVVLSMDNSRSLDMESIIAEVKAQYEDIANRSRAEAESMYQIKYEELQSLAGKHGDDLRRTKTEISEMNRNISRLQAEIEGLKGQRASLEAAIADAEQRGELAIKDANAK
In words: Western blot of SDS-PAGE-separated K8 GST fusion proteins, stained with COU-1 alone. A general note: In western blotting, separated proteins are transferred to a membrane and probed.

For another assay, the target named is T2, K8 (1-403).
T2 construct: not shown: N-terminal GST and its linker (modified pGEX-2T)
T2 chain: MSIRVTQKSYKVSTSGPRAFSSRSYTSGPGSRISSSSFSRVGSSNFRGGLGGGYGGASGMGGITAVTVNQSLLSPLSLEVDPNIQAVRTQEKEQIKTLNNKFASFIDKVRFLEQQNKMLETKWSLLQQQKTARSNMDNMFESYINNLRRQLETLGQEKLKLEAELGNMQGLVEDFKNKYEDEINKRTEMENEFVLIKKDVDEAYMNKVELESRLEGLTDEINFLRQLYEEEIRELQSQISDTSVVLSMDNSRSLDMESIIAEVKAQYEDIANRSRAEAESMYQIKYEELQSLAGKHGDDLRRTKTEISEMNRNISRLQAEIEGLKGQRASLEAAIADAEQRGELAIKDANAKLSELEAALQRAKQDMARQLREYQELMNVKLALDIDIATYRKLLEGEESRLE
Described as above.

The target in a further assay is T3, K8 (1-85).
T3 construct: also called K8(1-85) GST fusion protein; not shown: N-terminal GST carrier (modified pGEX-2T) and its linker
T3 chain: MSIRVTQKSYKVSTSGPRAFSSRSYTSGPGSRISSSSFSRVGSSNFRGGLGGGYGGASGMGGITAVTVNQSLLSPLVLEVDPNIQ
Described as above.

In the next assay the target is T4, K8 (1-129).
T4 construct: not shown: N-terminal GST carrier (modified pGEX-2T) and any linker
T4 chain: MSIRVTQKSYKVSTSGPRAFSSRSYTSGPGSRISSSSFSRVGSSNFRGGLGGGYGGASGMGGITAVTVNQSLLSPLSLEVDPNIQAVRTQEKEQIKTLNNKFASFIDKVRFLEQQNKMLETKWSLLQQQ
The description is as above.

A further assay addresses T5, K8 (1-233).
T5 construct: not shown: N-terminal GST carrier (modified pGEX-2T) and any linker
T5 chain: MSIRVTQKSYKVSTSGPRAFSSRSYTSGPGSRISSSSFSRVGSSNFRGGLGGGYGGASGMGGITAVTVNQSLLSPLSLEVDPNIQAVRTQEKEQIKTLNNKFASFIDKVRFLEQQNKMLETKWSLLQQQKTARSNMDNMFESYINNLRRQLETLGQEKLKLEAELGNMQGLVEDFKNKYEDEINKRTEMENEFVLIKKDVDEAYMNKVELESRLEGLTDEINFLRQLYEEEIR
The description is as above.

Assay [1] concerns the target T6, K8(1-65) GST fusion protein (human, UniProt P05787 2-66).
T6 construct: Alone, not complexed; not shown: glutathione S-transferase (GST) fusion partner, modified pGEX-2T vector
T6 sequence: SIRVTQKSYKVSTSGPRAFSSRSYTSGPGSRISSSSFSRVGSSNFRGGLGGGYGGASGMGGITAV
The description is as above.

Assay [2] has as its target T7, recombinant intact K8 (GST fusion protein) (human, UniProt P05787 2-483).
T7 construct: Alone, not complexed with K18; GST placed first as in pGEX vectors; also called full length K8; cytokeratin 8; not shown: glutathione S-transferase (GST) fusion partner, modified pGEX-2T vector
T7 chain: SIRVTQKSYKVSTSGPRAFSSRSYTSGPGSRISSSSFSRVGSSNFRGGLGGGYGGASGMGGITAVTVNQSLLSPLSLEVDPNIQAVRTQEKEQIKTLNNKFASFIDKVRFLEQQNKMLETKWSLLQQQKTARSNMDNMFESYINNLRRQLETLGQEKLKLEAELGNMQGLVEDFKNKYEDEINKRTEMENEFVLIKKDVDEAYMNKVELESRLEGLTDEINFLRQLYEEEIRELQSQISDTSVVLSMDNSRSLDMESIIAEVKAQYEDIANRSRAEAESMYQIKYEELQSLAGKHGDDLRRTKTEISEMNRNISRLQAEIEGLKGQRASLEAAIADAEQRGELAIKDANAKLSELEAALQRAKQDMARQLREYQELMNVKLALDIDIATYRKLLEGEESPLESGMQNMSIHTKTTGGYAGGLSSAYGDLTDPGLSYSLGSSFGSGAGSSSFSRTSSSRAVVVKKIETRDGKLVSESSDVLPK
Described as above.

In assay [3] the target is T8, K8(1-85)/K18(1-213) heterotypic complex (human, UniProt P05787 2-86; P05783 2-214).
T8 construct: Heterotypic complex of two GST fusion proteins; not shown: glutathione S-transferase (GST) fusion partner, modified pGEX-2T vector
T8 chain 1: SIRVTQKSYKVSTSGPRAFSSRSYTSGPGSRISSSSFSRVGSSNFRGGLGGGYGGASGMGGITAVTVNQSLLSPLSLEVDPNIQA
T8 chain 2: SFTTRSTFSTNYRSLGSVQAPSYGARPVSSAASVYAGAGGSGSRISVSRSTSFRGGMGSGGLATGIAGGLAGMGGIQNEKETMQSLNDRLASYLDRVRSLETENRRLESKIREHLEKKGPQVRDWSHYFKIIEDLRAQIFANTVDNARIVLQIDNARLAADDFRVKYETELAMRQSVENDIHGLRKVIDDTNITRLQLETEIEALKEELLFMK
The assay can be described thus: heterotypic association assay: blotted K8 proteins incubated with purified K18(1-213), then stained with COU-1.

B1: human monoclonal IgM antibody COU-1 (antibody, V domains shown)
VH: GAEVKKPGASVKVSCKASDYTFSSYYMHWVRQAPGQGLEWMGIINPSGGSTSYAQKFQGRVTMTRDTSTNTVYMELSSLRSEDTAVYYCARDQVVVAATLSNYGMDVWGQGTTVTVSS
VL: ELTQSPGTLSLSPGERATLSCRASQSVSSSYLAWYQQKPGQAPRLLIYDASNRATGIPARFSGSGSGTDFTLTISSLEPEDFAVYYCQQGTNWGIAFGQGTRLDIKR
notes: Human IgM with kappa light chain, secreted by hybridoma B9165 (ECACC 87040201), purified from culture supernatant; also called HMab COU-1; HuMab COU-1
Regarding B1, the binding result (with K8 (1-352); in the assay with K8 (1-403); with K8 (1-85); with K8 (1-129); in the assay with K8 (1-233); in assay [1]) was “no binding (tested: 5 µg/ml COU-1 (P-0279))” in each case. Further, the binding result is listed as “no binding (tested: 5 µg/ml COU-1 (P-0279))” in assay [2] and “no binding (tested: 5 µg/ml COU-1 (P-0285))” in assay [3].

(Values after patent US20050048070A1 (published 2005).)
